Laboratory results published in patent publication US20200087373A1 (UNIVERSITY OF COPENHAGEN, published 2020).
Numbered stars: 1 amine (or outer) side, 2 acyl side, 3 side chain; on linkers, the order of the positions; unused ones are H or OH. Side chains are listed from the residue outwards. Ends that are not written are not given here. * marks the point of attachment. γGlu = O=C(O)[C@H](CCC(=O)[*:2])N[*:1]; Palmitoyl = CCCCCCCCCCCCCCCC(=O)*; GABA = NCCCC(=O)O; βAla = NCCC(=O)O

B1: AT109 (E3pGlu, C16 at position 16) (peptide)
peptide: EGTFISDYSIAMDKIHQQDFVNWLLAQK
modifications: pyroglutamic acid (pGlu) in place of Glu at position 3 in GIP numbering (residue 1 of the entry); C16 (palmitoyl) fatty acid on Lys at position 16 (residue 14 of the entry); C-terminal amide taken from the series hGIP(3-30)NH2
B2: AT164 [hGIP(3-30)NH2[H18K]-C16/18+y-glutamic acid] (peptide)
peptide: EGTFISDYSIAMDKIK([γGlu-Palmitoyl])QQDFVNWLLAQK-NH2
modifications: N-terminus assumed
SMILES: CCCCCCCCCCCCCCCC(=O)N[C@@H](CCC(=O)NCCCC[C@H](NC(=O)[C@@H](NC(=O)[C@H](CCCCN)NC(=O)[C@H](CC(=O)O)NC(=O)[C@H](CCSC)NC(=O)[C@H](C)NC(=O)[C@@H](NC(=O)[C@H](CO)NC(=O)[C@H](Cc1ccc(O)cc1)NC(=O)[C@H](CC(=O)O)NC(=O)[C@H](CO)NC(=O)[C@@H](NC(=O)[C@H](Cc1ccccc1)NC(=O)[C@@H](NC(=O)CNC(=O)[C@@H](N)CCC(=O)O)[C@@H](C)O)[C@@H](C)CC)[C@@H](C)CC)[C@@H](C)CC)C(=O)N[C@@H](CCC(N)=O)C(=O)N[C@@H](CCC(N)=O)C(=O)N[C@@H](CC(=O)O)C(=O)N[C@@H](Cc1ccccc1)C(=O)N[C@H](C(=O)N[C@@H](CC(N)=O)C(=O)N[C@@H](Cc1c[nH]c2ccccc12)C(=O)N[C@@H](CC(C)C)C(=O)N[C@@H](CC(C)C)C(=O)N[C@@H](C)C(=O)N[C@@H](CCC(N)=O)C(=O)N[C@@H](CCCCN)C(N)=O)C(C)C)C(=O)O
B3: AT165 [hGIP(3-30)NH2[H18K]-C16/18+y-aminobuturic acid] (peptide)
peptide: EGTFISDYSIAMDKIK([GABA-Palmitoyl])QQDFVNWLLAQK-NH2
modifications: N-terminus assumed
SMILES: CCCCCCCCCCCCCCCC(=O)NCCCC(=O)NCCCC[C@H](NC(=O)[C@@H](NC(=O)[C@H](CCCCN)NC(=O)[C@H](CC(=O)O)NC(=O)[C@H](CCSC)NC(=O)[C@H](C)NC(=O)[C@@H](NC(=O)[C@H](CO)NC(=O)[C@H](Cc1ccc(O)cc1)NC(=O)[C@H](CC(=O)O)NC(=O)[C@H](CO)NC(=O)[C@@H](NC(=O)[C@H](Cc1ccccc1)NC(=O)[C@@H](NC(=O)CNC(=O)[C@@H](N)CCC(=O)O)[C@@H](C)O)[C@@H](C)CC)[C@@H](C)CC)[C@@H](C)CC)C(=O)N[C@@H](CCC(N)=O)C(=O)N[C@@H](CCC(N)=O)C(=O)N[C@@H](CC(=O)O)C(=O)N[C@@H](Cc1ccccc1)C(=O)N[C@H](C(=O)N[C@@H](CC(N)=O)C(=O)N[C@@H](Cc1c[nH]c2ccccc12)C(=O)N[C@@H](CC(C)C)C(=O)N[C@@H](CC(C)C)C(=O)N[C@@H](C)C(=O)N[C@@H](CCC(N)=O)C(=O)N[C@@H](CCCCN)C(N)=O)C(C)C
B4: AT166 [hGIP(3-30)NH2[H18K]-C16/18+β-alanine] (peptide)
peptide: EGTFISDYSIAMDKIK([βAla-Palmitoyl])QQDFVNWLLAQK-NH2
modifications: N-terminus assumed
SMILES: CCCCCCCCCCCCCCCC(=O)NCCC(=O)NCCCC[C@H](NC(=O)[C@@H](NC(=O)[C@H](CCCCN)NC(=O)[C@H](CC(=O)O)NC(=O)[C@H](CCSC)NC(=O)[C@H](C)NC(=O)[C@@H](NC(=O)[C@H](CO)NC(=O)[C@H](Cc1ccc(O)cc1)NC(=O)[C@H](CC(=O)O)NC(=O)[C@H](CO)NC(=O)[C@@H](NC(=O)[C@H](Cc1ccccc1)NC(=O)[C@@H](NC(=O)CNC(=O)[C@@H](N)CCC(=O)O)[C@@H](C)O)[C@@H](C)CC)[C@@H](C)CC)[C@@H](C)CC)C(=O)N[C@@H](CCC(N)=O)C(=O)N[C@@H](CCC(N)=O)C(=O)N[C@@H](CC(=O)O)C(=O)N[C@@H](Cc1ccccc1)C(=O)N[C@H](C(=O)N[C@@H](CC(N)=O)C(=O)N[C@@H](Cc1c[nH]c2ccccc12)C(=O)N[C@@H](CC(C)C)C(=O)N[C@@H](CC(C)C)C(=O)N[C@@H](C)C(=O)N[C@@H](CCC(N)=O)C(=O)N[C@@H](CCCCN)C(N)=O)C(C)C

Experiments:
human GIP receptor [1] = target: T1, human GIP receptor (human, UniProt P48546 22-466); assay: cell-based or functional assay
T1 sequence (looked up): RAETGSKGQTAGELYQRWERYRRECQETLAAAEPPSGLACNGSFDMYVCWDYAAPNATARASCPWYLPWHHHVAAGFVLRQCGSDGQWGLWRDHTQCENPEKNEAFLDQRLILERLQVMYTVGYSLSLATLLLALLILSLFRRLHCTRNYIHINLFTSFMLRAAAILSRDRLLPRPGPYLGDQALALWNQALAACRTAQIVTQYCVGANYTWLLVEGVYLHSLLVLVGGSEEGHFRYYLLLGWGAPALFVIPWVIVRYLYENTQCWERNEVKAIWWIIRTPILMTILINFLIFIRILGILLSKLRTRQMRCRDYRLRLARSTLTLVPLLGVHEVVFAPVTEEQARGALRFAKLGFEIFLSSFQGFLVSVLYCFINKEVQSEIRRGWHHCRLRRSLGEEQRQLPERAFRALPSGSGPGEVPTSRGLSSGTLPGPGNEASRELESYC

human GIP receptor [2] = target: T1, human GIP receptor; assay: 125I-hGIP(1-42) competition binding, COS-7 cells expressing human GIPR
Description: (§1) After incubation, the cells were washed twice in ice-cold binding buffer (+/−2% HSA) and lysed using 200 mM NaOH with 1% SDS for 30 min. Nonspecific binding was determined as the binding of radioactive ligand to untransfected cells.

human GIP receptor [3] = target: T1, human GIP receptor; assay: 125I-hGIP competition binding on hGIPR COS-7 cells; fold in affinity, paired, reference taken as GIP(3-30)NH2
Description: as §1

human GIP receptor [4] = target: T1, human GIP receptor; assay: cell-based or functional assay; remark: listed apart in the source

Row | Binder | cAMP - antagonisme fold (paired) (human GIP receptor [1]) [fold] | IC50 (human GIP receptor [2]) [nM] | fold (paired) (human GIP receptor [3]) [fold] | cAMP accumulation IC50 (human GIP receptor [4]) [nM] | cAMP accumulation logIC50 (human GIP receptor [4]) | cAMP accumulation Fold change (from GIP(3-30)NH2) (human GIP receptor [4]) [fold]
1 | B1 | 8 | 1580 | 74 | – | – | –
2 | EGTFISDYSIAMDKIHQQDFVNWLLAQK-NH2 [hGIP(3-30)NH2] | – | – | – | 64.6 | -7.19 log(M) | –
3 | B2 | – | – | – | 10.2 | -7.99 log(M) | 6.3
4 | B3 | – | – | – | 22.4 | -7.65 log(M) | 2.9
5 | B4 | – | – | – | 22.9 | -7.64 log(M) | 2.9
